Experimental findings from the supplement of paper PMC10724198 are described below.

± gives the standard deviation of the averaged measurements.
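Also: PSI is a weighted mean of sequencing reads over stability bins, variants kept only with over 10 reads, mCherry proximal and sfGFP distal, peptide attached via GGGS linker.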

For this series, the system named is Saccharomyces cerevisiae. The series is described as follows: protein stability index of tFT-peptide fusion (C-terminal peptide) (PSI (0-1 scale)); higher = more stable (slower turnover). The conditions noted are these: genetic background: wild type; temperature: 30 C.
Sequence SRYERLFSDNRG showed a protein stability index of 0.718 ± 0.019.

SSALPPLLAFFL: the protein stability index came out at 0.6808 ± 0.0046.

For SSALSLVSSFLP, the protein stability index is 0.705 ± 0.05.

SSASLIPPPPVP registered a protein stability index of 0.693 ± 0.053.

Consider SSCRHYRSPINH, for which the protein stability index worked out at 0.764 ± 0.069.

SSDLSNVQTQRL had a protein stability index of 0.708 ± 0.065.

In the case of SSFFTTGAPRPP, the protein stability index amounted to 0.674 ± 0.061.

Consider SSGFVWVGVCVG, for which the protein stability index was determined as 0.5 ± 0.0069.

The sequence SSGRRFVVVVQG returned a protein stability index of 0.572 ± 0.026.

Take SSGSLITIASPF: the protein stability index worked out at 0.745 ± 0.024.

In turn, SSHHGSSEDDHQ showed a protein stability index of 0.6597 ± 0.001.

The sequence SSHHYSCPLVDT registered a protein stability index of 0.667 ± 0.058.

SSIHSLRQVISI registered a protein stability index of 0.614 ± 0.051.

Take SSLDTPSFDSSL: the protein stability index was determined as 0.675 ± 0.018.

Regarding SSLLSPLRSAFL, the protein stability index came out at 0.71 ± 0.066.

SSLMGGLSAYPG yielded a protein stability index of 0.694 ± 0.011.

SSLNLLIHTAPL returned a protein stability index of 0.739 ± 0.023.

Sequence SSLSFAPAPPFV had a protein stability index of 0.698 ± 0.035.

SSPEYIRNIQRS showed a protein stability index of 0.62 ± 0.029.

Take SSPGFCRVFVFF: the protein stability index was 0.491 ± 0.018.

On to SSPHRFLCLPPP, for which the protein stability index is 0.639 ± 0.061.

Regarding SSPLPLPLHPPP, the protein stability index worked out at 0.7146 ± 0.0062.

In the case of SSPPRSLLSKSF, the protein stability index stood at 0.722 ± 0.017.

SSPSALSLLLSV: the protein stability index is 0.6876 ± 0.0049.

Turning to SSPSPSPPHLHP, the protein stability index was determined as 0.712 ± 0.02.

SSQVELPVSVVW displayed a protein stability index of 0.649 ± 0.058.

Take SSRGVTRRRLRE: the protein stability index was 0.724 ± 0.15.

SSRPLISTLTPY: the protein stability index worked out at 0.661 ± 0.014.

In the case of SSRSMKKKKVKI, the protein stability index was determined as 0.7034 ± 0.0027.

Consider SSRVSLSTVCLL, for which the protein stability index amounted to 0.585 ± 0.019.

SSSAPLPPSLPL showed a protein stability index of 0.791 ± 0.16.

Take SSSEGNRGSLQY: the protein stability index amounted to 0.774 ± 0.041.

Consider SSSPPPPPPSPS, for which the protein stability index is 0.75 ± 0.12.

The sequence SSTALVFRLICL yielded a protein stability index of 0.63 ± 0.016.

SSVNRPTSWTKA displayed a protein stability index of 0.739 ± 0.024.

SSWRVPLSVLPI yielded a protein stability index of 0.67 ± 0.014.

STELQKMPQIEY registered a protein stability index of 0.722 ± 0.11.

For STKQTTTTERAI, the protein stability index is 0.67 ± 0.013.

In turn, STPDRFVSRGRQ displayed a protein stability index of 0.702 ± 0.043.

STPPGTPGISRQ displayed a protein stability index of 0.723 ± 0.079.

For the sequence STPPLSLRPLLR, the protein stability index is 0.608 ± 0.055.

Sequence STPSPLTLPPLP registered a protein stability index of 0.695 ± 0.024.

STPSPSPTGLSR returned a protein stability index of 0.597 ± 0.065.

STPVKLPTSSLP showed a protein stability index of 0.663 ± 0.051.

For STQELHYCFVCL, the protein stability index worked out at 0.59 ± 0.022.

In the case of STRPPVRYHGAS, the protein stability index was 0.728 ± 0.066.

Turning to STRRTSKCHQGI, the protein stability index stood at 0.711 ± 0.019.

In turn, STSAPPRVPTPR yielded a protein stability index of 0.704 ± 0.078.

Regarding STSSNGVGLPRL, the protein stability index came to 0.901 ± 0.11.

On to STVHLPAPAWGS, for which the protein stability index was found to be 0.707 ± 0.033.

SVAGGGSACRGC displayed a protein stability index of 0.646 ± 0.039.

In turn, SVAWPRLLSISP returned a protein stability index of 0.612 ± 0.0089.

In turn, SVCFPPCSSLPP yielded a protein stability index of 0.71 ± 0.19.

Sequence SVFGCLPFDLMV came in with a protein stability index of 0.735 ± 0.0088.

Sequence SVFSPSTALLYP registered a protein stability index of 0.697 ± 0.02.

On to SVGGLAALLCGL, for which the protein stability index was determined as 0.682 ± 0.037.

For SVGGSLGAGGGG, the protein stability index is 0.682 ± 0.064.

Take SVGKRRGVGVWN: the protein stability index came out at 0.7007 ± 0.0031.

Sequence SVGLPPPPPFPP showed a protein stability index of 0.629 ± 0.017.

Consider SVGLQLAFSAAV, for which the protein stability index was 0.728 ± 0.061.

The sequence SVLALKGFCWLG yielded a protein stability index of 0.562 ± 0.042.

SVPPCSLPPLPP: the protein stability index is 0.6407 ± 0.0048.

On to SVPPTCLHDAHF, for which the protein stability index came out at 0.713 ± 0.053.

Take SVPSAWCWVSSS: the protein stability index is 0.6 ± 0.038.
